Laboratory results: the supplement of paper PMC10724198
± gives the standard deviation of the averaged measurements.

System: Saccharomyces cerevisiae
Assay: protein stability index of tFT-peptide fusion (C-terminal peptide) (PSI (0-1 scale)); higher = more stable (slower turnover)
Details: genetic background: wild type; temperature: 30 C
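Note: PSI is a weighted mean of sequencing reads over stability bins, variants kept only with over 10 reads, mCherry proximal and sfGFP distal, peptide attached via GGGS linker.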

Row | Sequence | protein stability index
1 | PPPPPPPPPSTP | 0.744 ± 0.016
2 | TSGAEKLPIANS | 0.648 ± 0.05
3 | SQQFGSILPGEL | 0.694 ± 0.018
4 | CFGSRDSSFGHT | 0.763 ± 0.13
5 | GAVLSYIAPTPL | 0.7404 ± 0.0055
6 | QCIQQNVSSSRA | 0.646 ± 0.014
7 | GMQPRGVRRATS | 0.728 ± 0.023
8 | EATCSPCPTRVV | 0.621 ± 0.012
9 | RREKRPMKKGGR | 0.6126 ± 0.002
10 | PRSVPLCALLSL | 0.654 ± 0.024
11 | SPSPFRPAPSLH | 0.7048 ± 0.0061
12 | VKPVLEILKTKT | 0.663 ± 0.037
13 | GVPFSLGPPPSR | 0.669 ± 0.022
14 | HPPTCTTVLPTL | 0.579 ± 0.023
15 | RCLGDLLARQTP | 0.635 ± 0.012
16 | GDGNERPLGRRD | 0.643 ± 0.052
17 | SSPTRARLFFPH | 0.659 ± 0.039
18 | FPHLAPTTHLLP | 0.673 ± 0.1
19 | CISPPRHAPPPP | 0.637 ± 0.092
20 | SPGCPNRGAFEI | 0.871 ± 0.07
21 | FPTPPPGPGPPP | 0.641 ± 0.03
22 | FLRILRLTPRRP | 0.728 ± 0.036
23 | RIIRPRSTKDHP | 0.745 ± 0.14
24 | VFMPVGVGGGSC | 0.678 ± 0.05
25 | PLAPPLPPPGPL | 0.74 ± 0.022
26 | RIKKKKKIKRNN | 0.7 ± 0.02

Row | Sequence | protein stability index
27 | LTGSPDSNPNSV | 0.68 ± 0.084
28 | LRCWVGGALCGG | 0.685 ± 0.033
29 | SRASATTLRLAT | 0.66 ± 0.015
30 | THPPPPPPACSV | 0.632 ± 0.037
31 | FALYVHHSLSFG | 0.685 ± 0.02
32 | KSPIPMRAPGNS | 0.633 ± 0.053
33 | CSSLPSRPLLPH | 0.7209 ± 0.0062
34 | QYFRKRVLKELP | 0.671 ± 0.074
35 | LRARTPPPSHLP | 0.693 ± 0.02
36 | AQSFRGVLLDVT | 0.706 ± 0.05
37 | LAPASPTHPHPP | 0.679 ± 0.0087
38 | LPTHYHQSHTEP | 0.681 ± 0.052
39 | NLSLYFGGVLVL | 0.603 ± 0.027
40 | QKTSPWRQRGRL | 0.778 ± 0.047
41 | QKATRHRTRPRR | 0.688 ± 0.12
42 | WLREDCLLSRGR | 0.7 ± 0.0016
43 | PPATPPPPPPFL | 0.68 ± 0.15
44 | WGGGGGKEAVVR | 0.6554 ± 0.0042
45 | LFFFPPVPISSV | 0.601 ± 0.0008
46 | SGVVIDDSLKEE | 0.683 ± 0.0092
47 | GRGTLLGLGLYA | 0.692 ± 0.078
48 | SVGSLLAFLHRR | 0.68336 ± 0.00055
49 | FPVPPPPHPPLH | 0.675 ± 0.027
50 | TRGSLIFACSVF | 0.576 ± 0.033
51 | CFNGRVGGGGMR | 0.636 ± 0.086
52 | QPQRSRLRQQNT | 0.734 ± 0.081

Row | Sequence | protein stability index
53 | ILRPAPVFPLDP | 0.689 ± 0.0089
54 | PPPSTRSNPGLD | 0.745 ± 0.028
55 | LEITKKKIGLKY | 0.716 ± 0.13
56 | VDVSVLVGLNFV | 0.797 ± 0.056
57 | PGVGRLGRTPVS | 0.6959 ± 0.0054
58 | SCFTSLLGRRDG | 0.784 ± 0.12
59 | PPPLPAPPFSVF | 0.649 ± 0.028
60 | TYLSAWQFCVAS | 0.579 ± 0.049
61 | SPAPIRFLWTIP | 0.59 ± 0.028
62 | DSSPSPYPRPPP | 0.729 ± 0.054
63 | PASPPLRALSSL | 0.81 ± 0.075
64 | DVLGCHRCLGFC | 0.699 ± 0.021
65 | PTSFAPSPPLPR | 0.741 ± 0.025
66 | RPEKGLESGQRV | 0.69 ± 0.064
67 | KDDKQRKQHGKK | 0.6632 ± 0.0046
68 | ARCLETKPVMNA | 0.666 ± 0.03
69 | LALTIVKFGDLS | 0.789 ± 0.057
70 | VSRRSGVGICHL | 0.609 ± 0.13
71 | PSGRPPGHDNLV | 0.666 ± 0.045
72 | FLQHPPHVLHPY | 0.7013 ± 0.0069
73 | SRFRKSSGLLLK | 0.758 ± 0.09
74 | RGVGGRGIGFPR | 0.6826 ± 0.0058
75 | IIYKPEKMRPKS | 0.7146 ± 0.0068
76 | GRVRIFDCVVRL | 0.753 ± 0.011
77 | VNHVVRFFFSSH | 0.676 ± 0.019
78 | PPPPHAPSASPP | 0.668 ± 0.022

Row | Sequence | protein stability index
79 | GGVRVPRVDVVG | 0.618 ± 0.042
80 | SSLPDSPLNRER | 0.693 ± 0.038
81 | WYGPKLVGGSIV | 0.722 ± 0.12
82 | VIQMVIYEKDQR | 0.681 ± 0.04
83 | RGVGGRALGVGR | 0.678 ± 0.038
84 | SPVSLLSFRLLL | 0.573 ± 0.022
85 | PPPLHPPPPPPA | 0.704 ± 0.037
86 | KEREGSRKETKH | 0.694 ± 0.01
87 | RFGDWALGARVG | 0.72 ± 0.032
88 | SGKFGACVDRGI | 0.7236 ± 0.00012
89 | LPPPPSAPHPSP | 0.668 ± 0.023
90 | PPPGPRQRPPPH | 0.665 ± 0.087
91 | PSPALLILPPYS | 0.672 ± 0.016
92 | HPPPPRLPPRPP | 0.63 ± 0.02
93 | PSPSTAPPRDQG | 0.724 ± 0.016
94 | RSHPTPQAHPSA | 0.728 ± 0.051
95 | HGRSGGGKGAER | 0.674 ± 0.038
96 | GVRGGGAVGGLR | 0.65 ± 0.056
97 | PPSPPPPPAAST | 0.768 ± 0.13
98 | TMLPQGFSGNLH | 0.6891 ± 0.0025
99 | ENERRESLTMVR | 0.786 ± 0.1
100 | LATGLVIETLWE | 0.753 ± 0.042
101 | TPHNQPKPTPPC | 0.698 ± 0.032
102 | QNSDDFLITDTY | 0.643 ± 0.1
103 | NNKNNKNKIYKK | 0.679 ± 0.0091
104 | PPPSLSPAPAPP | 0.736 ± 0.027

Row | Sequence | protein stability index
105 | VHFGVLSLGKRH | 0.769 ± 0.16
106 | TSFAPPSLPRHS | 0.735 ± 0.056
107 | VRRPSPSGGWLR | 0.73 ± 0.051
108 | VGWQGRWWVWGG | 0.5679 ± 0.005
109 | PPSPPVPRFSLL | 0.69503 ± 0.00011
110 | VLGVDVIQVCPI | 0.682 ± 0.018
111 | RLTALVYFISPL | 0.597 ± 0.017
112 | SICRERRLSFYL | 0.728 ± 0.052
113 | CAAYIQNLPFPF | 0.727 ± 0.019
114 | LPPPPPASPPSP | 0.703 ± 0.01
115 | LCRVFAGFLSVG | 0.689 ± 0.036
116 | TVVYPFHSGGFA | 0.694 ± 0.024
117 | TGSRISHSPLYP | 0.671 ± 0.02
118 | VGGWWAREVVEL | 0.753 ± 0.0085
119 | PRPPRPPRPPLP | 0.66 ± 0.016
120 | FLSFTSLRTKGL | 0.743 ± 0.054
121 | NKSHFGHSCYLR | 0.64 ± 0.013
122 | LAGPYGRVTVFF | 0.67 ± 0.029
123 | PPSRDRSGCISV | 0.709 ± 0.021
124 | IRCHSERKSWMY | 0.7 ± 0.065
125 | SANSGVRHMHFW | 0.729 ± 0.058
126 | PGSKLGPAASRG | 0.663 ± 0.071
127 | GFTHAPTVPSPE | 0.745 ± 0.017
128 | RLLPPSLAQRNN | 0.5909 ± 0.0011
129 | LPVSPDTLSPPL | 0.678 ± 0.022
130 | RPPIGTLCSINF | 0.614 ± 0.13

Row | Sequence | protein stability index
131 | GRVRLGMKETLS | 0.713 ± 0.016
132 | SPPCSPSALSHL | 0.728 ± 0.053
133 | GEAEGGEEYGEG | 0.636 ± 0.017
134 | RFVCVSVCPVRV | 0.487 ± 0.065
135 | PSHAAPVPAPQP | 0.628 ± 0.079
136 | LTFSRFIENHYL | 0.662 ± 0.015
137 | PLLRRLFPLSSR | 0.608 ± 0.052
138 | RLGALNHPLAAP | 0.7183 ± 0.0057
139 | ESGRGGVGVGWG | 0.709 ± 0.096
140 | GRRVQRGQARGA | 0.66 ± 0.024
141 | SQTPPPAPSGHH | 0.69 ± 0.099
142 | PLNPSPSCPPTL | 0.676 ± 0.023
143 | RLLPLPRRTPPL | 0.852 ± 0.11
144 | GSTRWGSAEGRG | 0.662 ± 0.21
145 | STCSTSQPPSPS | 0.663 ± 0.069
146 | PLRPLPTPRPPP | 0.686 ± 0.0071
147 | VLPVLTWWGELG | 0.733 ± 0.018
148 | LAVSSAPLLSSF | 0.723 ± 0.071
149 | GRTGETGRIGRG | 0.6512 ± 0.0023
150 | YPPPPPLAPPRP | 0.747 ± 0.14
151 | PPPLRLPQSRLP | 0.722 ± 0.09
152 | ASNSSGHTTRAS | 0.6727 ± 0.003
153 | PTPPPRPPLSPP | 0.692 ± 0.046
154 | TMQDSNKSQGCA | 0.706 ± 0.019
155 | GGGGGREPGCGP | 0.707 ± 0.01
156 | LSFSDPLSLPRH | 0.675 ± 0.079

Row | Sequence | protein stability index
157 | DPTPLKSLVTRP | 0.64 ± 0.04
158 | AVTAFDMGGSRN | 0.672 ± 0.12
159 | LRANSCCPLFGS | 0.739 ± 0.0036
160 | KIIQDCSSLSKK | 0.683 ± 0.033
161 | NSTERDNGIRKE | 0.6686 ± 0.0065
162 | KKKKIEEKKDCK | 0.715 ± 0.023
163 | GTRAVSKLNPDA | 0.701 ± 0.02
164 | RRSSLGIYWIYS | 0.61 ± 0.037
165 | FLRYVLLPSLFV | 0.499 ± 0.01
166 | GHWRQCSVAEGA | 0.643 ± 0.0024
167 | CGLSAGIVLFFC | 0.58 ± 0.012
168 | RRLFVMDKRKRK | 0.716 ± 0.033
169 | VCCDRWWFAFWE | 0.7241 ± 0.0012
170 | FCPPLAFPPPLS | 0.743 ± 0.028
171 | VPVISYVQTSIA | 0.558 ± 0.033
172 | KRRTGKEGRIRR | 0.723 ± 0.021
173 | PPPPPNPIPPTF | 0.713 ± 0.028
174 | APHLPGHLTRPP | 0.686 ± 0.086
175 | AQELPGGAGGDG | 0.659 ± 0.031
176 | CLIGYFPYRLVL | 0.502 ± 0.025
177 | PFFPSQFFLFFS | 0.6477 ± 0.0048
178 | PPSAPPLPPLPL | 0.69 ± 0.014
179 | QRGCEAKRGGEG | 0.628 ± 0.014
180 | LKTNECIPVTEK | 0.609 ± 0.029
181 | PRHISIHPNATP | 0.705 ± 0.045
182 | SSFLAPFRFPLL | 0.675 ± 0.093

Row | Sequence | protein stability index
183 | GPPSVSPPFSPS | 0.7829 ± 0.0016
184 | FPELLFLFSPSF | 0.723 ± 0.022
185 | SPPILPRGLYSH | 0.637 ± 0.0097
186 | GKREGRGRKRGG | 0.807 ± 0.092
187 | PPSLTPAALPAA | 0.745 ± 0.072
188 | RGTYRYNFSQKK | 0.652 ± 0.12
189 | LLVNSFLIFPPH | 0.68474 ± 0.00059
190 | LKAWQRRWEGVR | 0.752 ± 0.026
191 | VVCVGAEVGEGG | 0.7197 ± 0.0067
192 | SVVVVAKAKAGR | 0.635 ± 0.047
193 | YVVCMNKSSFRG | 0.769 ± 0.042
194 | KIANNEIEYARD | 0.598 ± 0.037
195 | TSVVRIGVYRAS | 0.613 ± 0.037
196 | CFLIFQRSWLFR | 0.576 ± 0.066
197 | ALPARFSSFRLP | 0.678 ± 0.019
198 | CPGNRQEMLKSR | 0.676 ± 0.0083
199 | NTKNPRPQDPQQ | 0.651 ± 0.013
200 | KGINALICTGSI | 0.6601 ± 0.0043
201 | QFSRSFHSLPPT | 0.683 ± 0.022
202 | FPPRLPPSPPLP | 0.666 ± 0.036
